Laboratory results published in the supplement of paper PMC9112550, “Optimization of the antimicrobial peptide Bac7 by deep mutational scanning” (BMC Biology, 2022).

System: Escherichia coli TOP10
Assay: shrunken log2 fold change of peptide-encoding DNA abundance (4.5 h post-induction vs induction); higher = less antimicrobial activity (less host growth inhibition)
Conditions: time post-induction: 4.5 h; library: site-saturation at positions 5, 18, 19, 20
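Also: peptides expressed intracellularly from a pBAD plasmid library in pooled LB shake-flask culture, induced with 0.3% L-arabinose, DNA abundance read by NGS, three biological replicates, DESeq2 with apeglm shrinkage.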

| Sequence | shrunken log2 fold change |
| --- | --- |
| RRIRGRPPRLPRPRPRPISAPRP | 0.363 |
| RRIRCRPPRLPRPRPRPRFCPRP | 0.071 |
| RRIRMRPPRLPRPRPRPEHLPRP | 0.417 |
| RRIRFRPPRLPRPRPRPIEGPRP | 0.0922 |
| RRIRCRPPRLPRPRPRPAQKPRP | -0.118 |
| RRIRHRPPRLPRPRPRPEQLPRP | -0.0602 |
| RRIRVRPPRLPRPRPRPIVMPRP | -0.107 |
| RRIRCRPPRLPRPRPRPIKSPRP | -0.185 |
| RRIRERPPRLPRPRPRPCLMPRP | -0.0535 |
| RRIRLRPPRLPRPRPRPDCFPRP | 0.19 |
| RRIRERPPRLPRPRPRPGQPPRP | 0.0236 |
| RRIRGRPPRLPRPRPRPQPKPRP | 0.884 |
| RRIRDRPPRLPRPRPRPSNDPRP | 0.0978 |
| RRIRLRPPRLPRPRPRPINRPRP | 0.0141 |
| RRIRDRPPRLPRPRPRPVVNPRP | 0.24 |
| RRIRFRPPRLPRPRPRPHSTPRP | -0.0436 |
| RRIRLRPPRLPRPRPRPQWKPRP | 0.0162 |
| RRIRARPPRLPRPRPRPCACPRP | 0.0599 |
| RRIRQRPPRLPRPRPRPQMRPRP | -0.0736 |
| RRIRPRPPRLPRPRPRPMCTPRP | 0.108 |
| RRIRVRPPRLPRPRPRPTCSPRP | 0.19 |
| RRIRTRPPRLPRPRPRPDTWPRP | 0.0221 |
| RRIRFRPPRLPRPRPRPHAPPRP | -0.062 |
| RRIRGRPPRLPRPRPRPVDVPRP | 0.447 |
| RRIRDRPPRLPRPRPRPYDRPRP | -0.0075 |

| Sequence | shrunken log2 fold change |
| --- | --- |
| RRIRCRPPRLPRPRPRPTQWPRP | 0.202 |
| RRIRYRPPRLPRPRPRPMSCPRP | -0.115 |
| RRIRQRPPRLPRPRPRPKCAPRP | 0.16 |
| RRIRLRPPRLPRPRPRPGDFPRP | 0.017 |
| RRIRGRPPRLPRPRPRPPINPRP | 0.21 |
| RRIRCRPPRLPRPRPRPMYSPRP | -0.386 |
| RRIRRRPPRLPRPRPRPHARPRP | 0.586 |
| RRIRGRPPRLPRPRPRPWTVPRP | -0.0833 |
| RRIRWRPPRLPRPRPRPMNDPRP | -0.0845 |
| RRIRLRPPRLPRPRPRPEGAPRP | 0.552 |
| RRIRMRPPRLPRPRPRPQKIPRP | 0.255 |
| RRIRDRPPRLPRPRPRPHTPPRP | 0.0203 |
| RRIRRRPPRLPRPRPRPRKIPRP | 0.405 |
| RRIRTRPPRLPRPRPRPMTFPRP | 0.0754 |
| RRIRERPPRLPRPRPRPVWCPRP | -0.156 |
| RRIRSRPPRLPRPRPRPINNPRP | -0.647 |
| RRIRKRPPRLPRPRPRPFAWPRP | 0.462 |
| RRIRWRPPRLPRPRPRPRWIPRP | 0.211 |
| RRIRGRPPRLPRPRPRPMGVPRP | 0.00855 |
| RRIRMRPPRLPRPRPRPEPRPRP | 1.5 |
| RRIRVRPPRLPRPRPRPLHHPRP | -0.253 |
| RRIRWRPPRLPRPRPRPRRGPRP | 0.528 |
| RRIRSRPPRLPRPRPRPKPDPRP | 0.22 |
| RRIRMRPPRLPRPRPRPKILPRP | 0.289 |
| RRIRERPPRLPRPRPRPCKKPRP | 0.0187 |

| Sequence | shrunken log2 fold change |
| --- | --- |
| RRIRARPPRLPRPRPRPGDFPRP | 0.383 |
| RRIRQRPPRLPRPRPRPDQDPRP | 0.192 |
| RRIRYRPPRLPRPRPRPHAGPRP | 0.0561 |
| RRIRYRPPRLPRPRPRPKCRPRP | -0.153 |
| RRIRHRPPRLPRPRPRPEYFPRP | -0.0339 |
| RRIRGRPPRLPRPRPRPGNNPRP | -0.0385 |
| RRIRIRPPRLPRPRPRPEREPRP | 0.0556 |
| RRIRFRPPRLPRPRPRPIHNPRP | -0.745 |
| RRIRDRPPRLPRPRPRPNHHPRP | -0.539 |
| RRIRTRPPRLPRPRPRPIGWPRP | 0.6 |
| RRIRVRPPRLPRPRPRPYQYPRP | -0.0296 |
| RRIRKRPPRLPRPRPRPLYTPRP | -0.288 |
| RRIRDRPPRLPRPRPRPHESPRP | -0.0121 |
| RRIRYRPPRLPRPRPRPCNKPRP | -0.0167 |
| RRIRYRPPRLPRPRPRPGQVPRP | -0.0686 |
| RRIRQRPPRLPRPRPRPNFQPRP | -0.198 |
| RRIRFRPPRLPRPRPRPEYSPRP | 5.84e-05 |
| RRIRARPPRLPRPRPRPQCCPRP | 0.219 |
| RRIRQRPPRLPRPRPRPRCSPRP | -0.232 |
| RRIRQRPPRLPRPRPRPRGCPRP | 0.199 |
| RRIRARPPRLPRPRPRPCDGPRP | 0.146 |
| RRIRKRPPRLPRPRPRPFAGPRP | 0.191 |
| RRIRVRPPRLPRPRPRPWPHPRP | -0.103 |
| RRIRYRPPRLPRPRPRPNSTPRP | -1.01 |
| RRIRDRPPRLPRPRPRPPTEPRP | 0.274 |
